The text below walks through data of US20110160280.

Data set [1] concerns the target active recombinant EGFR (Millipore) (UniProt P00533).
For data set [2], the target named is GST-tagged partial EGFR fragment #3 (codons 1046-1186) (UniProt P00533).
Data set [3] deals with active recombinant MET (Millipore).
In data set [4] the test system is T1, WDHD1 immunoprecipitant, wild type (c-Myc-tagged WDHD1, pcDNA3.1/myc-His-WDHD1).
T1 sequence: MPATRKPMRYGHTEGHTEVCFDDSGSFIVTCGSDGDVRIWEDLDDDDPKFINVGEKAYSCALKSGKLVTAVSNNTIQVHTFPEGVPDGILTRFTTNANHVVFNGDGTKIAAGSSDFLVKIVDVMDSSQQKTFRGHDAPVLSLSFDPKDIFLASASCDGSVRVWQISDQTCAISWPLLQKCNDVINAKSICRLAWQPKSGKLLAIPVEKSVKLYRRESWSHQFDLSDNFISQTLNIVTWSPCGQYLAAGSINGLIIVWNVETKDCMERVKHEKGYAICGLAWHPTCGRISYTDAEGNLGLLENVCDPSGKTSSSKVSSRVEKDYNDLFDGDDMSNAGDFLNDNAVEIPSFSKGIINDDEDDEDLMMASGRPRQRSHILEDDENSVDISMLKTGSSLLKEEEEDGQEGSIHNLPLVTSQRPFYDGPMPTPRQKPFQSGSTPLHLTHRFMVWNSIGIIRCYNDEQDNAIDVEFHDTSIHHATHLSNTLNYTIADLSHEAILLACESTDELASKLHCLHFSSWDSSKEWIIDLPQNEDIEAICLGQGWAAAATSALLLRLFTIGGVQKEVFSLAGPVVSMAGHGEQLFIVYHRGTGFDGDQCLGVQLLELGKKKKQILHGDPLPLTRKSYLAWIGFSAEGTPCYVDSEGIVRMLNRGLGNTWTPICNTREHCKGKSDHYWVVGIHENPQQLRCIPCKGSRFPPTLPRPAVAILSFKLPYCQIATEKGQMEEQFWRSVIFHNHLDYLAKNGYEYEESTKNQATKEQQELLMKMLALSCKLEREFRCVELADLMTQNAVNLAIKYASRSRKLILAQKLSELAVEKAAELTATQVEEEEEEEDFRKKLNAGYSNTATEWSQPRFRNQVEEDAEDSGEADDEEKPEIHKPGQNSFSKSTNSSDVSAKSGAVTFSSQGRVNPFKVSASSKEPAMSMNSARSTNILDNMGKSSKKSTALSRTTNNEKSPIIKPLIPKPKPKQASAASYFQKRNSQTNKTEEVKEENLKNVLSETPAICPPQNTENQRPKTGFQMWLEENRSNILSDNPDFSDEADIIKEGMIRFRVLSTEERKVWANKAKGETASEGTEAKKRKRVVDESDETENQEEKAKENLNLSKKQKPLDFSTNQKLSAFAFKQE

The subject of data set [5] is T2, WDHD1 S374A immunoprecipitant.
T2 sequence: T1 sequence with S374A

Where a chain is given by its changes, count along the chain named.

Sequence of active recombinant EPHA7 (Carnabioscience) (chain, as listed by the source): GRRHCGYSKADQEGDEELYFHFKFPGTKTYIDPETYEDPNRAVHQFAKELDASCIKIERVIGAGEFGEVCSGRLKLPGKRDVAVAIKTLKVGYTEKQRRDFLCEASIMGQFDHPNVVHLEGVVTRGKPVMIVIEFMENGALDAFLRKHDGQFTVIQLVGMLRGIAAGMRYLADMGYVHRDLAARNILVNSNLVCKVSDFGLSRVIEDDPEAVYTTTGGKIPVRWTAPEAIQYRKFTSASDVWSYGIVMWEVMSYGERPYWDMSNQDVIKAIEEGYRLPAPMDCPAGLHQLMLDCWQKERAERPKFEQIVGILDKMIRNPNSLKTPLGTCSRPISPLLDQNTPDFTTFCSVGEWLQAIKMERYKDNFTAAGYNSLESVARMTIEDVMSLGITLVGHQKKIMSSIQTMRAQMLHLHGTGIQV
Sequence of active recombinant MET (Millipore) (chain, as listed by the source): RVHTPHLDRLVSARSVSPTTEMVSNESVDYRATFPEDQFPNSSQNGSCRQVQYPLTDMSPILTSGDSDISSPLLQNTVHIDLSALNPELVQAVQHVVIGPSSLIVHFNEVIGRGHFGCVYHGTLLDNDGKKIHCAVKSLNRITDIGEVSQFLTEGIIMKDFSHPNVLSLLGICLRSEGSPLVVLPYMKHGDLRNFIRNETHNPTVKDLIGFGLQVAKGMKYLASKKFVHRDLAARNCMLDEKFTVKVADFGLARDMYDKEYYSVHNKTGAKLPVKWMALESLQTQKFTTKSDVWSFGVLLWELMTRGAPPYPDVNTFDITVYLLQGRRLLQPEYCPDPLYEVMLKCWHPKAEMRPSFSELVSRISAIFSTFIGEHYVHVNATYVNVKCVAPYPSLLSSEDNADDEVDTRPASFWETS

“active recombinant EPHA7 (Carnabioscience)”: the “in vitro kinase assay (phosphorylation of EGFR)” value in data set [1] is “EPHA7 could directly phosphorylate EGFR under the existence of EGFR kinase inhibitor that had diminished autophosphorylation of EGFR”. Besides, the “in vitro kinase assay (phosphorylation of partial EGFR fragment)” value in data set [2] is recorded as “phosphorylated tyrosine residues on cytoplasmic EGFR could be present in COOH-terminal portion (codons 1046-1186)”. Also, in data set [3], the “in vitro kinase assay (level of EPHA7 phosphorylation)” value was “the level of EPHA7 phosphorylation was markedly elevated when MET was co-incubated in the presence MET kinase inhibitor” and the “in vitro kinase assay (phosphorylation of MET)” value is given as “EPHA7 could directly phosphorylate MET”.

Regarding “recombinant human AKT1 (rhAKT1; Invitrogen)”, the “in vitro kinase assay, immunoblot with PAS antibody” value in data set [4] is listed as “proved the direct phosphorylation of WDHD1 by AKT”; in data set [5], “clearly indicated the reduced levels of WDHD1 phosphorylation in cells transfected with S374A mutant”.
